Measured values published in patent US20220332804A1 (CSL INNOVATION, published 2022).
Changes are numbered by the printed parent chain.

Assays:
Assay in all cases: SPR, KD relative to WT C2;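 further: biacore SPR at 37 °C, anti-C2 mAbs captured via immobilised goat anti-human IgG, C2 alanine or serine surface mutants as analytes, 1:1 model fitted, double-referenced sensograms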
human C2 G427A = target: T1, human C2 G427A (human, UniProt P06681 21-752)
T1 sequence: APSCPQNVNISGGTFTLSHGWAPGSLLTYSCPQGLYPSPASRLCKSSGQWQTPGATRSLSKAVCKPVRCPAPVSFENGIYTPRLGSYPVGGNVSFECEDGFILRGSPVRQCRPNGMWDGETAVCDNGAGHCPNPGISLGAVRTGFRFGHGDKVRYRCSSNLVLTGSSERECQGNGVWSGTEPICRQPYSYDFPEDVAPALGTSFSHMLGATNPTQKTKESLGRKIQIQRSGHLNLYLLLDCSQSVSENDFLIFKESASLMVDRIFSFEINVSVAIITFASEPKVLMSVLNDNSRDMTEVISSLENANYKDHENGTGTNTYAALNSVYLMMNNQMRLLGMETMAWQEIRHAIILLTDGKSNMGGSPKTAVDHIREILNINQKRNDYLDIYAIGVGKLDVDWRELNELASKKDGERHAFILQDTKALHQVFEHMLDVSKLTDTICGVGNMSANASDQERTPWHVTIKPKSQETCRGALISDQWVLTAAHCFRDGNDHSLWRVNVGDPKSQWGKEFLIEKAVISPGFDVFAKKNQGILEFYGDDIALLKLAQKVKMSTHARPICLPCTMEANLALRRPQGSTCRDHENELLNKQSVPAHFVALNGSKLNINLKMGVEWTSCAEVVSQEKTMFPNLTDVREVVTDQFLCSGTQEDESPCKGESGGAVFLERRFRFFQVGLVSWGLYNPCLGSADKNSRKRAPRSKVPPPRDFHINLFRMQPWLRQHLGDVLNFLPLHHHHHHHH

human C2 S428A = target: T2, human C2 S428A (human, UniProt P06681 21-752)
T2 sequence: T1 sequence with A407G, S408A

human C2 D441A = target: T3, human C2 D441A (human, UniProt P06681 21-752)
T3 sequence: T1 sequence with A407G, D421A

human C2 S469A = target: T4, human C2 S469A (human, UniProt P06681 21-752)
T4 sequence: T1 sequence with A407G, S449A

B1: RF16-226 (antibody, human IgG4 S228P, lambda)
heavy: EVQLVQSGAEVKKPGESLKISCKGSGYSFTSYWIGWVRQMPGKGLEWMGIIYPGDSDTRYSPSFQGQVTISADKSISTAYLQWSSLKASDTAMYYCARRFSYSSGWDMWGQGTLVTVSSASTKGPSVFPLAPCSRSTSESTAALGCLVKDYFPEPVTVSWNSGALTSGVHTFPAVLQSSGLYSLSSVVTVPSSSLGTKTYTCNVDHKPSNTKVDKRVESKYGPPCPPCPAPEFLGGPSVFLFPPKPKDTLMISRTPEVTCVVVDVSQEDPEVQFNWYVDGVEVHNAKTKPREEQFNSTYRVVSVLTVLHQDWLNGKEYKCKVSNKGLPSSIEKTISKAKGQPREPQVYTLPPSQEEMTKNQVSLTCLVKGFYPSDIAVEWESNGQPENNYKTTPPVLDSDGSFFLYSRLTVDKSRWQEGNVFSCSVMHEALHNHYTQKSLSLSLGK
light: SYELTQPPSVSVSPGQTARITCSGDALTSKYVAWYQQKSGLAPLLVIYEDTRRPSGIPAKFSGSSSGSVATLTISGAHGDDEADYYCYSTDASGHQRVFGGGTKLTVLSQPKAAPSVTLFPPSSEELQANKATLVCLISDFYPGAVTVAWKADGSPVKAGVETTKPSKQSNNKYAASSYLSLTPEQWKSHRSYSCQVTHEGSTVEKTVAPTECS
notes: pH-dependent anti-C2 antibody from a phage display library; also called WT
Q: With B1 as the binder, how does the Fold diff (human C2 G427A) read?
A: 0 fold

Q: What about the Fold diff (human C2 S428A) of the same binder?
A: 2 fold

Q: What about the Fold diff (human C2 D441A) of the same binder?
A: 6 fold

Q: What about the Fold diff (human C2 S469A) of the same binder?
A: 3 fold
